Common to all, as to experiment: pull-down
Assay [1] addresses GST-fused human eIF2β (GST-eIF2β) (human) (UniProt P20042).
In assay [2] the target is GST-5MP1-7A (7 alanine substitutions in AA-box 2) (human) (UniProt Q9Y6E2).
For assay [3], the target named is human eIF2 purified from HeLa cells (human, UniProt P05198 1-315; P20042 1-333; P41091 1-472).

This is an account of results in PMC3201852 (Nucleic Acids Research, 2011).

Chain of GST-fused human eIF2β (GST-eIF2β) (human) (P20042 whole entry, the tested form may be a part): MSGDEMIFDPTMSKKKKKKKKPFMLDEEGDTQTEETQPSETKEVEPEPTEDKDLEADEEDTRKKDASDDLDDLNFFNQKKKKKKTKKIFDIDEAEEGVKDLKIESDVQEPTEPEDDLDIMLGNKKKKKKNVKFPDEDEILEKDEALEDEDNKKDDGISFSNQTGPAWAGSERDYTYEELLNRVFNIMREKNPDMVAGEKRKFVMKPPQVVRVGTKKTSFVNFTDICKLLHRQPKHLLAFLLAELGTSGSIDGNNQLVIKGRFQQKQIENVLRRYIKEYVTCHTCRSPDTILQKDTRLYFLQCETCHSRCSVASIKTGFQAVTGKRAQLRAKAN
Chain of human eIF2 purified from HeLa cells (human, UniProt P05198 1-315; P20042 1-333; P41091 1-472) (P05198 whole entry, chain 1 of 3): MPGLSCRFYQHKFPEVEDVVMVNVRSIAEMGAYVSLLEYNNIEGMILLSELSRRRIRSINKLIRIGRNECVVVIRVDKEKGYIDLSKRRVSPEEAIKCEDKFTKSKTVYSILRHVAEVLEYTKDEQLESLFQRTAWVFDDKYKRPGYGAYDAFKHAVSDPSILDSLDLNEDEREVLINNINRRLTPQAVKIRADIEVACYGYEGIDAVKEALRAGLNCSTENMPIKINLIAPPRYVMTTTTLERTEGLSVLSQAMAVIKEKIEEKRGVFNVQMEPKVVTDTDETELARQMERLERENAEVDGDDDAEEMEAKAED
Chain of human eIF2 purified from HeLa cells (human, UniProt P05198 1-315; P20042 1-333; P41091 1-472) (P20042 whole entry, chain 2 of 3): as the sequence (P20042 whole entry, the tested form may be a part) above
Chain of human eIF2 purified from HeLa cells (human, UniProt P05198 1-315; P20042 1-333; P41091 1-472) (P41091 whole entry, chain 3 of 3): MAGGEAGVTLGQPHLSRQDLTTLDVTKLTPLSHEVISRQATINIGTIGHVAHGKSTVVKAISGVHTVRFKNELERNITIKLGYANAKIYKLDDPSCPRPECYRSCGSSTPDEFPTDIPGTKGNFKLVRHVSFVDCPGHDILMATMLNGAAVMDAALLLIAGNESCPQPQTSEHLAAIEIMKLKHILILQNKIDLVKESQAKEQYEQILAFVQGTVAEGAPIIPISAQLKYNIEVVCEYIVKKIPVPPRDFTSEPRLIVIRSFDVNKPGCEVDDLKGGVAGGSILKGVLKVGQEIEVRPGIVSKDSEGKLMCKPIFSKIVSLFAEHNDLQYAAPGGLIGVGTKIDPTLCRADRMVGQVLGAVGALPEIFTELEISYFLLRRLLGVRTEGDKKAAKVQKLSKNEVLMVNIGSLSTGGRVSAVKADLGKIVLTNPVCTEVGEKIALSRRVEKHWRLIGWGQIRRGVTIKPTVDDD

In assay [1], “FL-5MP1-7A (FLAG-tagged 5MP1 with the AA-box 2 mutation 7A) (from UniProt Q9Y6E2 1-419) (natural protein)” had a fold reduction of binding against wild-type FL-5MP1 of 2 fold.

In the case of “human eIF2 purified from HeLa cells (from UniProt P05198 1-315; P20042 1-333; P41091 1-472) (complex)”, the fold reduction of binding against wild-type GST-5MP1 in assay [2] was above 2 fold.

B1: GST-5MP1 fusion protein (human eIF5-mimic protein 1) (natural protein, UniProt Q9Y6E2 1-419, looked up)
chain: MNKHQKPVLTGQRFKTRKRDEKEKFEPTVFRDTLVQGLNEAGDDLEAVAKFLDSTGSRLDYRRYADTLFDILVAGSMLAPGGTRIDDGDKTKMTNHCVFSANEDHETIRNYAQVFNKLIRRYKYLEKAFEDEMKKLLLFLKAFSETEQTKLAMLSGILLGNGTLPATILTSLFTDSLVKEGIAASFAVKLFKAWMAEKDANSVTSSLRKANLDKRLLELFPVNRQSVDHFAKYFTDAGLKELSDFLRVQQSLGTRKELQKELQERLSQECPIKEVVLYVKEEMKRNDLPETAVIGLLWTCIMNAVEWNKKEELVAEQALKHLKQYAPLLAVFSSQGQSELILLQKVQEYCYDNIHFMKAFQKIVVLFYKADVLSEEAILKWYKEAHVAKGKSVFLDQMKKFVEWLQNAEEESESEGEEN
As to B1, the binding result in assay [3] is reported as “binds”.
